Reference: US20140235820A1, “METHODS AND COMPOSITIONS FOR MODULATING THE Wnt PATHWAY” (Genentech, Inc., priority 2010, published 2014)

T1: human LRP6 construct E4 (T933-Q1253) (human, UniProt O75581 933-1253, biotinylated for biolayer interferometry)
T1 construct: range 933-1253; also called LRP6 E4
T1 sequence (looked up): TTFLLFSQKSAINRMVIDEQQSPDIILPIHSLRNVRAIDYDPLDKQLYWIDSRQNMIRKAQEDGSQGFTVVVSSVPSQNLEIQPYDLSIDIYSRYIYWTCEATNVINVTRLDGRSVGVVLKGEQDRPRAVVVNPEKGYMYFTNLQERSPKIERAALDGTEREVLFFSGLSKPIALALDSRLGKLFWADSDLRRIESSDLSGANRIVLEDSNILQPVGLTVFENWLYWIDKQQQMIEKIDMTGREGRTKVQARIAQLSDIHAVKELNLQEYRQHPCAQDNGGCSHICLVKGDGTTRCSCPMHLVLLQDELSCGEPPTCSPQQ

T2: human LRP6 construct E1E2 (amino acids A20-E631) (human, UniProt O75581 20-631, biotinylated for biolayer interferometry)
T2 construct: range 20-631; also called LRP6 E1E2
T2 sequence (looked up): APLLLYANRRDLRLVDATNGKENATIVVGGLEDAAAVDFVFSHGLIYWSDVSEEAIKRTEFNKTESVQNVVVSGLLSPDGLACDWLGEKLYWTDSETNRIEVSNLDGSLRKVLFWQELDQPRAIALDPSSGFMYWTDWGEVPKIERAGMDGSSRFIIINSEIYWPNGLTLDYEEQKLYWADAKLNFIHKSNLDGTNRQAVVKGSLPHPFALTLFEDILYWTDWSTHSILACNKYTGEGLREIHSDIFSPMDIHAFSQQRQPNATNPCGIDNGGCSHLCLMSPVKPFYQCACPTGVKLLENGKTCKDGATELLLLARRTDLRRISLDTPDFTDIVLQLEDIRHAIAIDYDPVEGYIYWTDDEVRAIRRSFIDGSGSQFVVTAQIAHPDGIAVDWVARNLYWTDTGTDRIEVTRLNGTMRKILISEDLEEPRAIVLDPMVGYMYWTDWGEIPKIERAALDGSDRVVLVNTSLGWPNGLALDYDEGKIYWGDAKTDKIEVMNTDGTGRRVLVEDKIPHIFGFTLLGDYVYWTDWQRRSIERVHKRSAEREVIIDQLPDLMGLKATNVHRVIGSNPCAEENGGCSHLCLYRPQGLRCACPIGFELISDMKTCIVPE

T3: human LRP6 construct E3E4 (amino acids E631-Q1253) (human, UniProt O75581 631-1253, biotinylated for biolayer interferometry)
T3 construct: range 631-1253; also called LRP6 E3E4
T3 sequence (looked up): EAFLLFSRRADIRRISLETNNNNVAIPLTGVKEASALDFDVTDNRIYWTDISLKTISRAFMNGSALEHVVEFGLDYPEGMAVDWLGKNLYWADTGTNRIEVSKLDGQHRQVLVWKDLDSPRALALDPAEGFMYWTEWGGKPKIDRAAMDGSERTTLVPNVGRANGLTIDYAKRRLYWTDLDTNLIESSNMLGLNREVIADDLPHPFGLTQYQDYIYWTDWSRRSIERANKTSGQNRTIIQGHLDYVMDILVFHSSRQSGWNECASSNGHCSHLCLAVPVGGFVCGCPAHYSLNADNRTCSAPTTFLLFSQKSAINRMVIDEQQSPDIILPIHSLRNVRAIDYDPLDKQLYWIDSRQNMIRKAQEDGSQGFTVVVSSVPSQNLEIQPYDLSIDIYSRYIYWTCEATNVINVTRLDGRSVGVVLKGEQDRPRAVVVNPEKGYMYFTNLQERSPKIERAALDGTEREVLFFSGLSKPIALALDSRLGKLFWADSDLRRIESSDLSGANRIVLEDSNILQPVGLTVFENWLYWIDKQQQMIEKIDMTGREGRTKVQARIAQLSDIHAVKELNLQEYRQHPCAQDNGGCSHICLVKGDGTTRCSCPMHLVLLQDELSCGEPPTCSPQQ

T4: LRP6 E1E2 Asn185Ser (human, UniProt O75581 20-631)
T4 construct: range 20-631; also called LRP6 E1E2 N185S (analogue of LRP5 BMD mutation Asn198Ser)
T4 sequence (looked up): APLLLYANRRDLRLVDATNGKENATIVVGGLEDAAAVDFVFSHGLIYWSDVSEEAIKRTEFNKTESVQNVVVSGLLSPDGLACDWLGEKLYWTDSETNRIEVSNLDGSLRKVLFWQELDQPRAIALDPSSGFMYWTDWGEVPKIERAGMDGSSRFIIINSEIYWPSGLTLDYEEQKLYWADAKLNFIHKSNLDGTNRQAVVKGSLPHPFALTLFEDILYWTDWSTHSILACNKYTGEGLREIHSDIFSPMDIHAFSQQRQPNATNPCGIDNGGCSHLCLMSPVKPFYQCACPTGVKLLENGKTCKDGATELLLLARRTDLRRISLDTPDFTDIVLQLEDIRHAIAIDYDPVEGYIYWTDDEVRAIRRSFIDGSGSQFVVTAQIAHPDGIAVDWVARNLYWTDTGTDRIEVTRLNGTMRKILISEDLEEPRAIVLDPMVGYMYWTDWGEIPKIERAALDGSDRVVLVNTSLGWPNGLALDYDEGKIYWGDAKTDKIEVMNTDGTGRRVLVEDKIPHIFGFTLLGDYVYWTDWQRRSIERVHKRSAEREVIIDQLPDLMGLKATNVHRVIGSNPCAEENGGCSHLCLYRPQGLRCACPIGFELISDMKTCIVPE

T5: LRP6 E1E2 Arg141Met (human, UniProt O75581 20-631)
T5 construct: range 20-631; also called LRP6 E1E2 R141M
T5 sequence (looked up): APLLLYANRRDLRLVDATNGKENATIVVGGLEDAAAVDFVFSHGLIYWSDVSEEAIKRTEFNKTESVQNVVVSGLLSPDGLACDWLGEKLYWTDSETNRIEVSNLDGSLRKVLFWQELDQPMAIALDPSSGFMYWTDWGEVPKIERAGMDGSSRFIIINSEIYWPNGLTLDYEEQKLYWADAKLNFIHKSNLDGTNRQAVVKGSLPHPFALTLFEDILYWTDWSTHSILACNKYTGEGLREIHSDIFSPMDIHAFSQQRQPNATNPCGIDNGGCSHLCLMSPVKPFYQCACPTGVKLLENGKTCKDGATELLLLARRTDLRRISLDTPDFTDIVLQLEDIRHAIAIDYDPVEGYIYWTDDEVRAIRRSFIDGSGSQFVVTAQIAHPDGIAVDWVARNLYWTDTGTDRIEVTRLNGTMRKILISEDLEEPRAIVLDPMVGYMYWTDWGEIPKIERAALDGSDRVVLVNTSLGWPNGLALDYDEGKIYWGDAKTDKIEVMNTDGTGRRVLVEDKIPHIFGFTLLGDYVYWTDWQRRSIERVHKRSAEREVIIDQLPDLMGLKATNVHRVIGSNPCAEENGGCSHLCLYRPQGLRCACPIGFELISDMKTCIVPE

T6: human LRP6 construct E1 (amino acids A20-D325) (human, UniProt O75581 20-325)
T6 construct: range 20-325; In the Fab crystal E1 arose from E1E2 degraded beyond Arg 335; residues Ala20 to Lys324 were traced; also called LRP6 E1; E1 domain
T6 sequence (looked up): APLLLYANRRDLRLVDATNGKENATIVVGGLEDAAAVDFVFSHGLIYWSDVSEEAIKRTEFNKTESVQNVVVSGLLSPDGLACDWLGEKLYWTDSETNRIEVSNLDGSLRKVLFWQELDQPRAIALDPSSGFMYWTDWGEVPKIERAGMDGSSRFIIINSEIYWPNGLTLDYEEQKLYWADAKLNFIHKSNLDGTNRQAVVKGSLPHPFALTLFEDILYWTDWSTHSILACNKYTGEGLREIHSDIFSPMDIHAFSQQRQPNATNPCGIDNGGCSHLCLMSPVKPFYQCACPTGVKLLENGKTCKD

B1: Dkk1 (wild type) (ligand, human, UniProt O94907 32-266, looked up)
chain: TLNSVLNSNAIKNLPPPLGGAAGHPGSAVSAAPGILYPGGNKYQTIDNYQPYPCAEDEECGTDEYCASPTRGGDAGVQICLACRKRRKRCMRHAMCCPGNYCKNGICVSSDQNHFRGEIEETITESFGNDHSTLDGYSRRTTLSSKMYHTKGQEGSVCLRSSDCASGLCCARHFWSKICKPVLKEGQVCTKHRRKGSHGLEIFQRCYCGEGLSCRIQKDHHQASNSSRLHTCQRH
notes: also called Dickkopf 1; human Dkk1

Tests used:
[1] = target: T1, human LRP6 construct E4 (T933-Q1253); experiment: BLI, biotinylated LRP6 on streptavidin tips
Description: (§1) Binding kinetics were measured by biolayer interferometry using an Octet Red instrument (ForteBio) as previously described (11). Streptavidin (SA) biosensors were loaded with biotinylated hLRP6 in 50 mMTris, pH 8, 300 mM NaCl, 5% (v/v) glycerol, and 0.05% (w/v) Triton X-100. The loaded biosensors were washed in the same buffer before carrying out association and dissociation measurements for the indicated times. The Kd of each interaction was determined using steady state-analysis through the Octet Red software v6.3. Each reported value represents an average of three or more experiments at different concentrations, with a fitted experimental curve for which the square of the correlation coefficient (R²) is above 0.96.
Purified receptors contained individual β-propeller-EGF-like units (E1, E2, or E4), two β-propellers (E1E2 or E3E4), or four β-propellers (E1E4))—as follows: […]

[2] = target: T2, human LRP6 construct E1E2 (amino acids …); experiment: BLI (Octet Red), biotinylated LRP6 on streptavidin tips, steady state
Description: as §1

[3] = target: T3, human LRP6 construct E3E4 (amino acids …); experiment: as above
Description: as §1

LRP6 E1E2 Asn185Ser = target: T4, LRP6 E1E2 Asn185Ser; experiment: BLI steady-state affinity
Description: as §1

LRP6 E1E2 Arg141Met = target: T5, LRP6 E1E2 Arg141Met; experiment: BLI steady-state affinity
Description: as §1

[4] = target: T6, human LRP6 construct E1 (amino acids …); experiment: synthetic peptides, competition IC50 (FIG. 17A)

Binder | binding result [1] | Kd [2] | Kd [3] | fold loss in affinity against wild-type LRP6 E1E2 (LRP6 E1E2 Asn185Ser) | fold loss in affinity against wild-type LRP6 E1E2 (LRP6 E1E2 Arg141Met) | binding result [4]
B1 | no binding | 22 nM | 51 nM | 183 fold | 29 fold | –
AIKN [Dkk1 peptide lacking three residues from the N-terminus] | – | – | – | – | – | no binding
NSNA [Dkk1 peptide lacking three residues from the C-terminus] | – | – | – | – | – | no binding
